pKd: −log10 of the molar value.
Key:
Assay in all cases: fluorescence anisotropy competition
PU.1/Ets-1 S3 chimera = details: 0.1 mg/ml BSA, betaine to set osmolality (0.3 osm without stress), Cy3-DNA probe displaced by unlabeled DNA
[1] = tested on: Ets-1 ETS domain WT (Mus musculus); details: normo-osmotic; 10 mM TrisHCl pH 7.4, 0.15 M NaCl, 0.1 mg/ml BSA, betaine to set osmolality (0.3 osm without stress); Cy3-DNA probe displaced by unlabeled DNA; binding …
PU.1/Ets-1 H3 chimera = details: 10 mM TrisHCl pH 7.4, 0.15 M NaCl, 0.1 mg/ml BSA, betaine to set osmolality (0.3 osm without stress); Cy3-DNA probe displaced by unlabeled DNA; binding …
[2] = tested on: PU.1 ETS domain WT (PU.1ΔN167); details: 10 mM TrisHCl pH 7.4, 0.15 M NaCl, 0.1 mg/ml BSA, betaine to set osmolality (0.3 osm without stress), Cy3-DNA probe displaced by unlabeled DNA
PU.1/Ets-1 H2 chimera = details: 10 mM TrisHCl pH 7.4, 0.15 M NaCl, 0.1 mg/ml BSA, betaine to set osmolality (0.3 osm without stress); Cy3-DNA probe displaced by unlabeled DNA; binding …
PU.1/Ets-1 loop chimera = details: 10 mM TrisHCl pH 7.4, 0.15 M NaCl, 0.1 mg/ml BSA, betaine to set osmolality (0.3 osm without stress); Cy3-DNA probe displaced by unlabeled DNA; binding …
PU.1/Ets-1 wing chimera = details: 10 mM TrisHCl pH 7.4, 0.15 M NaCl, 0.1 mg/ml BSA, betaine to set osmolality (0.3 osm without stress); Cy3-DNA probe displaced by unlabeled DNA; binding …

Substance | pKd (PU.1/Ets-1 S3 chimera; 10 mM TrisHCl pH 7.4, 0.15 M NaCl, binding …) | pKd [1] | pKd (PU.1/Ets-1 H3 chimera) | pKd ([2]; binding …) | pKd (PU.1/Ets-1 H2 chimera) | pKd (PU.1/Ets-1 loop chimera) | pKd (PU.1/Ets-1 wing chimera) | binding signal (PU.1/Ets-1 S3 chimera; weaker than S3 chimera on N1, 10 mM TrisHCl pH 7.4, 0.15 M NaCl, scale: fold stronger than WT PU.1 on the same low-affinity DNA) | binding signal ([2]; may replot earlier WT data, scale: fold affinity vs S3 chimera on the same low-affinity DNA)
AGC high-affinity PU.1 site, 23-bp duplex | 9.31 | 9.22 | 7.66 | 9.47 | 9.10 | 8.89 | 8.80 |  | 
SC1 optimal Ets-1 site |  | 9.77 |  |  |  |  |  |  | 
low-affinity PU.1 site, 23-bp duplex |  |  |  |  |  |  |  | 5 | 0.2

Reference: paper PMC6237740
